In publication PMC9504884, “Functional Interactions of Kluyveromyces lactis Telomerase Reverse Transcriptase with the Three-Way Junction and the Template Domains of Telomerase RNA”:

Legend:
Experiment in all cases: EMSA; 1 nM RNA, tRNA competitor; 25 mM Tris-HCl pH 7.5, 50 mM KCl, 1 mM MgCl2, 1 mM DTT, 10% glycerol, 0.1% Triton, 0.5 mg/mL BSA, 1.7 ng/uL yeast tRNA, 1 nM RNA probe; 15 min on ice then 10 min room temperature; gel at 6 C
[1] = biological target: T1, klTRBD klEst2 171-404 (Kluyveromyces lactis, UniProt Q6CSS0 171-404); conditions: protein: recombinant; tags: N-terminal His-SUMO, TEV-cleaved; label: 5'-32P when probe; three-way junction
T1 sequence: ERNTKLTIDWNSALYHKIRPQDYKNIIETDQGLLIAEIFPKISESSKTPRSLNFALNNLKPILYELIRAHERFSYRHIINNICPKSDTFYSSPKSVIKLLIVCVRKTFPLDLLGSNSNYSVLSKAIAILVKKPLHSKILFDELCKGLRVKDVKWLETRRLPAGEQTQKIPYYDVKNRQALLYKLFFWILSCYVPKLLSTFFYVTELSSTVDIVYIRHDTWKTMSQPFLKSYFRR

[2] = biological target: T2, klTRBD klEst2 171-422 (Kluyveromyces lactis, UniProt Q6CSS0 171-422); conditions: protein: recombinant; tags: N-terminal His-SUMO, TEV-cleaved; label: 5'-32P when probe; three-way junction
T2 sequence: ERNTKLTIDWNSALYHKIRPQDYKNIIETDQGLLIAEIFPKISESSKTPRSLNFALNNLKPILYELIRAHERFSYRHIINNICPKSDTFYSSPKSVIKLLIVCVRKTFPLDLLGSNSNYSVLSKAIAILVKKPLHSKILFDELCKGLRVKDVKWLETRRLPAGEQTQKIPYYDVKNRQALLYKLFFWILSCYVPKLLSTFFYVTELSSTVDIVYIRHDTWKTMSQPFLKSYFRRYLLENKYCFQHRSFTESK

[3] = biological target: T3, klEst2 full-length (TERT) (Kluyveromyces lactis, UniProt Q6CSS0 1-861); conditions: protein: recombinant; tags: expressed in E. coli; His-SUMO tag described for the TRBD constructs, tag of full-length not clearly stated; label: 5'-32P when probe; three-way junction
T3 sequence: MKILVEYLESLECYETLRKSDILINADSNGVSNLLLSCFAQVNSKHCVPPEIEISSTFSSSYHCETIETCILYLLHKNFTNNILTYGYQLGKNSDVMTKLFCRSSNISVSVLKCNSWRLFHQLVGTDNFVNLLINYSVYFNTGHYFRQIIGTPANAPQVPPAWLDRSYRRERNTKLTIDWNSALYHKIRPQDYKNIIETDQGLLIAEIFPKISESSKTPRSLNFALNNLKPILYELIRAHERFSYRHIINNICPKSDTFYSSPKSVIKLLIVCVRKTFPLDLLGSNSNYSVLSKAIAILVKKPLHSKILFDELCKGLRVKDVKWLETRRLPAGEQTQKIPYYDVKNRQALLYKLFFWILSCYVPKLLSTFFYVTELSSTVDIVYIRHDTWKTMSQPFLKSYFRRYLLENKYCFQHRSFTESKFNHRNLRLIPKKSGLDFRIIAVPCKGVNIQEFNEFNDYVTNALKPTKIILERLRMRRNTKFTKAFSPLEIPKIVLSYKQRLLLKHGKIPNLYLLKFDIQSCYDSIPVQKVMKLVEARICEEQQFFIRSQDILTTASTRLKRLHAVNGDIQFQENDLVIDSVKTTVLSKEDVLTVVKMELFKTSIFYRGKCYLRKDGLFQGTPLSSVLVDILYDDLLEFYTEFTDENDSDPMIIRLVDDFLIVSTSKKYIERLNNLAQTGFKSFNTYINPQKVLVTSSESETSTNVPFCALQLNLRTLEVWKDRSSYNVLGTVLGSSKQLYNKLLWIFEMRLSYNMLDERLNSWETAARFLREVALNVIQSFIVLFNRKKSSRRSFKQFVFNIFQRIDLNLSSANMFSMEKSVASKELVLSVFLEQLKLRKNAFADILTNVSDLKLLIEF

B1: minTWJ (structured_RNA)
RNA: GGGUUGUCCUAUGGUGGAUCUUGAAAAGACCCUCGGAAGACAGGGCCACAUCGACGAUCAAUAUUUUGCCGUGAGGCUUAUAUGUCACCAUGGCAUGCAGCCC
[1]
  binding result: no binding
[2]
  binding result: no binding
[3]
  binding result: binds
